Patent publication US11224662B2, “Methods and therapeutics comprising ligand-targeted ELPs” (priority 2012, dated 2022)

B1: knob-(VPGIG)96Y (SEQ ID. NO: 9) (protein)
chain: VPGIGVPGIGVPGIGVPGIGVPGIGVPGIGVPGIGVPGIGVPGIGVPGIGVPGIGVPGIGVPGIGVPGIGVPGIGVPGIGVPGIGVPGIGVPGIGVPGIGVPGIGVPGIGVPGIGVPGIGVPGIGVPGIGVPGIGVPGIGVPGIGVPGIGVPGIGVPGIGVPGIGVPGIGVPGIGVPGIGVPGIGVPGIGVPGIGVPGIGVPGIGVPGIGVPGIGVPGIGVPGIGVPGIGVPGIGVPGIGVPGIGVPGIGVPGIGVPGIGVPGIGVPGIGVPGIGVPGIGVPGIGVPGIGVPGIGVPGIGVPGIGVPGIGVPGIGVPGIGVPGIGVPGIGVPGIGVPGIGVPGIGVPGIGVPGIGVPGIGVPGIGVPGIGVPGIGVPGIGVPGIGVPGIGVPGIGVPGIGVPGIGVPGIGVPGIGVPGIGVPGIGVPGIGVPGIGVPGIGVPGIGVPGIGVPGIGVPGIGVPGIGVPGIGVPGIGVPGIGY
B2: (VPGIG)96 (SEQ ID. NO: 14) (protein)
chain: VPGIGVPGIGVPGIGVPGIGVPGIGVPGIGVPGIGVPGIGVPGIGVPGIGVPGIGVPGIGVPGIGVPGIGVPGIGVPGIGVPGIGVPGIGVPGIGVPGIGVPGIGVPGIGVPGIGVPGIGVPGIGVPGIGVPGIGVPGIGVPGIGVPGIGVPGIGVPGIGVPGIGVPGIGVPGIGVPGIGVPGIGVPGIGVPGIGVPGIGVPGIGVPGIGVPGIGVPGIGVPGIGVPGIGVPGIGVPGIGVPGIGVPGIGVPGIGVPGIGVPGIGVPGIGVPGIGVPGIGVPGIGVPGIGVPGIGVPGIGVPGIGVPGIGVPGIGVPGIGVPGIGVPGIGVPGIGVPGIGVPGIGVPGIGVPGIGVPGIGVPGIGVPGIGVPGIGVPGIGVPGIGVPGIGVPGIGVPGIGVPGIGVPGIGVPGIGVPGIGVPGIGVPGIGVPGIGVPGIGVPGIGVPGIGVPGIGVPGIGVPGIGVPGIGVPGIGVPGIG
B3: knob-(VPGSG)96Y (SEQ ID. NO: 8) (protein)
chain: VPGSGVPGSGVPGSGVPGSGVPGSGVPGSGVPGSGVPGSGVPGSGVPGSGVPGSGVPGSGVPGSGVPGSGVPGSGVPGSGVPGSGVPGSGVPGSGVPGSGVPGSGVPGSGVPGSGVPGSGVPGSGVPGSGVPGSGVPGSGVPGSGVPGSGVPGSGVPGSGVPGSGVPGSGVPGSGVPGSGVPGSGVPGSGVPGSGVPGSGVPGSGVPGSGVPGSGVPGSGVPGSGVPGSGVPGSGVPGSGVPGSGVPGSGVPGSGVPGSGVPGSGVPGSGVPGSGVPGSGVPGSGVPGSGVPGSGVPGSGVPGSGVPGSGVPGSGVPGSGVPGSGVPGSGVPGSGVPGSGVPGSGVPGSGVPGSGVPGSGVPGSGVPGSGVPGSGVPGSGVPGSGVPGSGVPGSGVPGSGVPGSGVPGSGVPGSGVPGSGVPGSGVPGSGVPGSGVPGSGVPGSGVPGSGVPGSGVPGSGVPGSGVPGSGVPGSGVPGSGY
B4: G(VPGSG)48(VPGIG)48Y (SEQ ID. NO: 10) (protein)
chain: GVPGSGVPGSGVPGSGVPGSGVPGSGVPGSGVPGSGVPGSGVPGSGVPGSGVPGSGVPGSGVPGSGVPGSGVPGSGVPGSGVPGSGVPGSGVPGSGVPGSGVPGSGVPGSGVPGSGVPGSGVPGSGVPGSGVPGSGVPGSGVPGSGVPGSGVPGSGVPGSGVPGSGVPGSGVPGSGVPGSGVPGSGVPGSGVPGSGVPGSGVPGSGVPGSGVPGSGVPGSGVPGSGVPGSGVPGSGVPGSGVPGIGVPGIGVPGIGVPGIGVPGIGVPGIGVPGIGVPGIGVPGIGVPGIGVPGIGVPGIGVPGIGVPGIGVPGIGVPGIGVPGIGVPGIGVPGIGVPGIGVPGIGVPGIGVPGIGVPGIGVPGIGVPGIGVPGIGVPGIGVPGIGVPGIGVPGIGVPGIGVPGIGVPGIGVPGIGVPGIGVPGIGVPGIGVPGIGVPGIGVPGIGVPGIGVPGIGVPGIGVPGIGVPGIGVPGIGVPGIGY
B5: (VPGSG)96 (SEQ ID. NO: 13) (protein)
chain: VPGSGVPGSGVPGSGVPGSGVPGSGVPGSGVPGSGVPGSGVPGSGVPGSGVPGSGVPGSGVPGSGVPGSGVPGSGVPGSGVPGSGVPGSGVPGSGVPGSGVPGSGVPGSGVPGSGVPGSGVPGSGVPGSGVPGSGVPGSGVPGSGVPGSGVPGSGVPGSGVPGSGVPGSGVPGSGVPGSGVPGSGVPGSGVPGSGVPGSGVPGSGVPGSGVPGSGVPGSGVPGSGVPGSGVPGSGVPGSGVPGSGVPGSGVPGSGVPGSGVPGSGVPGSGVPGSGVPGSGVPGSGVPGSGVPGSGVPGSGVPGSGVPGSGVPGSGVPGSGVPGSGVPGSGVPGSGVPGSGVPGSGVPGSGVPGSGVPGSGVPGSGVPGSGVPGSGVPGSGVPGSGVPGSGVPGSGVPGSGVPGSGVPGSGVPGSGVPGSGVPGSGVPGSGVPGSGVPGSGVPGSGVPGSGVPGSGVPGSGVPGSGVPGSGVPGSGVPGSG

Assays:
[1] = Temperature-dependent optical density (turbidity) of ELP fusion peptides; format: physicochemical; conditions: for phase transition behaviour in optical density over temperature gradient: monoblock knob-ELPs, single increase in optical density; for Critical aggregation temperature: optical density at 350 nm by UV-Vis spectrophotometer
Protocol: (§1) To explore the temperature-dependent phase behavior of the ELPs, optical density and hydrodynamic radius were observed over a range of temperatures. Knob-S96, S48148 and knob-S48148 were diluted to 25 μM in PBS on ice and the absorbance at 350 nm was monitored with a DU800 UV-Vis spectrophotometer (Beckman Coulter, Brea, Calif.) at a temperature gradient of 1° C./minute. […] Then 90 μL sample of was transferred into a 384 well microplate and covered with 20 μL mineral oil. The microplate and mineral oil were pre-chilled at 4° C. at least for 1 hour. The microplate was centrifuged at 4° C. to remove air bubbles from samples before and after addition of mineral oil. Then the sample was measured in a DynaPro plate reader (Wyatt Inc., Santa Barbara, Calif.) at temperature intervals of 1° C. The resulting hydrodynamic radii were collected and analyzed by Dynamics (Wyatt Inc., Santa Barbara, Calif.).

[2] = Dynamic light scattering of ELP nanoparticles; format: physicochemical; conditions: for formation of nanoparticles: ELP without knob, S96 and I96 data not shown; for Hydrodynamic radius (nm) at 37° C.: 25 μM in PBS
Protocol: as §1

[3] = system: transformed mouse hepatocytes; assay: Live cell uptake of rhodamine-conjugated ELP/knob-ELP in hepatocytes; format: cell-based; conditions: 10 μM rhodamine-labeled, 30 minutes at 37° C., confocal microscopy, LYSOTRACKER green
Protocol: To track cellular uptake, the ELPs S48148 and knob-S48148 were conjugated with a detectable label, NHS-Rhodamine (Thermo Fisher Scientific Inc, Rockford, Ill.) via covalent modification of primary amines at the amino end of the peptide. For S48148, the only available amine is at the amino terminus; however, knob-S48148 has an additional 11 lysine residues that may be sites of modification. The conjugation was performed in 100 mM borate buffer for 2 hours at 4° C., and the conjugated ELP was separated by size exclusion chromatography on a PD10 desalting column (GE Healthcare, Piscataway, N.J.).
To observe uptake into mouse hepatocytes, cells were cultured on 35 mm glass coverslip-bottomed dishes with medium [(DMEM (4.5 g/L) containing 10% fetal bovine serum, g/ml insulin, and 0.02 [μg/ml epidermal growth factor]. Uptake studies were conducted when hepatocytes reached 70% confluence. After washing with warm fresh medium, hepatocytes were cultured in medium containing 10 μM of either S48148 or knob-S48148 conjugated with rhodamine, and 75 nM LYSOTRACKER® green. After 30 minutes incubation at 37° C., the cells were rinsed with warm fresh medium to remove the free knob-ELP/ELP in the medium. Next cells were incubated with 75 nM LYSOTRACKER® green in a 37° C. incubation chamber. […]

Molecule	phase transition behaviour in optical density over temperature gradient [1]	formation of nanoparticles [2]	Hydrodynamic radius (nm) at 37° C. ([2]; dynamic light scattering)	Critical aggregation temperature ([1]; 25 μM in PBS)	also measured
B1	phase-separates near room temperature	–	–	–	–
B2	–	do not form nanoparticles	–	–	–
B3	well above physiological conditions	–	5.3 nm	68.2 °C	–
B4	–	form nanoparticles at physiological temperatures	23.7 nm	26.5 °C	size by dynamic light scattering (BSA; unimers of the ELPs) ([2]; BSA stable from 10 to 37° C., ELPs as unimers below assembly temperature): around 4 nm; critical nanoparticle temperature (CNT) ([2]; dynamic light scattering): 26.5 °C; hydrodynamic diameter of nanoparticles ([2]; dynamic light scattering, self-assembled nanoparticles): around 40 nm; Transition Temperature T1 ([1]; first phase transition, optical density, 25 μM in PBS): 26.5 °C; Transition Temperature T2 ([1]; second phase transition, optical density, 25 μM in PBS): 75 °C; cellular uptake / fluorescence localisation [3]: slightly more intense fluorescence on the cell surface
B5	–	do not form nanoparticles	–	–	–
